# Measured values reported in patent US20180155451A1 (published 2018).
# T1: FcγRIIb (human, UniProt P31994 43-217)
# T1 construct: extracellular domain; also called 2b
# T1 sequence (looked up): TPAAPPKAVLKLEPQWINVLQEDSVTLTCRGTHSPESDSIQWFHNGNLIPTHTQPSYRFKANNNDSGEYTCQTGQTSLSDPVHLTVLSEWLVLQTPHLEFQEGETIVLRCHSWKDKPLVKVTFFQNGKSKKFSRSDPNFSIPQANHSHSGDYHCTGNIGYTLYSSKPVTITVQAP
# T2: FcγRIIa H (human, UniProt P12318 34-217)
# T2 construct: extracellular domain; also called FcγRIIa type H; 2aH
# T2 sequence (looked up): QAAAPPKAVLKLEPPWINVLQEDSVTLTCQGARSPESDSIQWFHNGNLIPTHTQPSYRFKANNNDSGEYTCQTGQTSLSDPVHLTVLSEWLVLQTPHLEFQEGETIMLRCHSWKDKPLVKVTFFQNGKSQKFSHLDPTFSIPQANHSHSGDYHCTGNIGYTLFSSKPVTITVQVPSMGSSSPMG
# Assays:
# FcγRIIb = target: T1, FcγRIIb; assay: SPR (Biacore), relative binding vs GpH7-A5/GpH7-B3/GpL16-k0
# Procedure: (§1) The heterodimerized antibodies He Abs in which one of the H chains was introduced with an alteration were assayed for their binding activities to each activating FcγR and inhibitory FcγR according to the method described in Example 4. […] The activating FcγRs in FIGS. 26, 27, 28, and 29 are FcγRIa, FcγRIIa (R), FcγRIIa (H), and FcγRIIIa, respectively.
# (§2) Analysis of interaction between objective antibody and the FcγR was carried out using Biacore T100 (GE Healthcare). HBS-EP+ (GE Healthcare) was used as the running buffer, and the measurement temperature was set to 25° C. Chips produced by immobilizing the antigen peptide by the amine coupling method to a Series S Sencor Chip CM5 (GE Healthcare), or alternatively, chips produced by allowing preliminarily biotinylated antigen peptides to interact with and immobilize onto a Series S Sensor Chip SA (certified) (GE Healthcare) were used. Antibodies of interest were captured onto an antigen peptide-immobilized chip, and allowed to interact to each FcγR diluted with running buffer. To regenerate and repeatedly use the chip, the antibodies captured on the chip were washed off by reacting 10 mM glycine-HCl, pH 1.5.
# FcγRIIa H = target: T2, FcγRIIa H; assay: as above
# Procedure: as §1, §2
He/Con_2b (FcγRIIb),He/Con_2aH (FcγRIIa H),Binder
114 % of control He Ab (=100),98.2 % of control He Ab (=100),"GpH7-A5/GpH7-B3 variant K334_10E/GpL16-k0 (antibody, human IgG1, kappa, heterodimerized IgG1, mutation in one H chain only; also called He Ab) heavy 1: not shown heavy 2: not shown light: DIVMTQSPLSLPVTPGEPASISCQASESLVHSNRNTYLHWYLQKPGQSPQLLIYKVSNRFSGVPDRFSGSGSGTDFTLKISRVEAEDVGVYYCSQNTHVPPTFGQGTKVEIERTVAAPSVFIFPPSDEQLKSGTASVVCLLNNFYPREAKVQWKVDNALQSGNSQESVTEQDSKDSTYSLSSTLTLSKADYEKHKVYACEVTHQGLSSPVTKSFNRGEC"
172 % of control He Ab (=100),55.5 % of control He Ab (=100),"GpH7-A5/GpH7-B3 variant L328_10E/GpL16-k0 (antibody, human IgG1, kappa, heterodimerized IgG1, mutation in one H chain only; also called He Ab) heavy 1: not shown heavy 2: not shown light: DIVMTQSPLSLPVTPGEPASISCQASESLVHSNRNTYLHWYLQKPGQSPQLLIYKVSNRFSGVPDRFSGSGSGTDFTLKISRVEAEDVGVYYCSQNTHVPPTFGQGTKVEIERTVAAPSVFIFPPSDEQLKSGTASVVCLLNNFYPREAKVQWKVDNALQSGNSQESVTEQDSKDSTYSLSSTLTLSKADYEKHKVYACEVTHQGLSSPVTKSFNRGEC"
217 % of control He Ab (=100),48.2 % of control He Ab (=100),"GpH7-A5/GpH7-B3 variant N325_06M/GpL16-k0 (antibody, human IgG1, kappa, heterodimerized IgG1, mutation in one H chain only; also called He Ab) heavy 1: not shown heavy 2: not shown light: DIVMTQSPLSLPVTPGEPASISCQASESLVHSNRNTYLHWYLQKPGQSPQLLIYKVSNRFSGVPDRFSGSGSGTDFTLKISRVEAEDVGVYYCSQNTHVPPTFGQGTKVEIERTVAAPSVFIFPPSDEQLKSGTASVVCLLNNFYPREAKVQWKVDNALQSGNSQESVTEQDSKDSTYSLSSTLTLSKADYEKHKVYACEVTHQGLSSPVTKSFNRGEC"
219 % of control He Ab (=100),71.7 % of control He Ab (=100),"GpH7-A5/GpH7-B3 variant L328_04F/GpL16-k0 (antibody, human IgG1, kappa, heterodimerized IgG1, mutation in one H chain only; also called He Ab) heavy 1: not shown heavy 2: not shown light: DIVMTQSPLSLPVTPGEPASISCQASESLVHSNRNTYLHWYLQKPGQSPQLLIYKVSNRFSGVPDRFSGSGSGTDFTLKISRVEAEDVGVYYCSQNTHVPPTFGQGTKVEIERTVAAPSVFIFPPSDEQLKSGTASVVCLLNNFYPREAKVQWKVDNALQSGNSQESVTEQDSKDSTYSLSSTLTLSKADYEKHKVYACEVTHQGLSSPVTKSFNRGEC"
171 % of control He Ab (=100),38.1 % of control He Ab (=100),"GpH7-A5/GpH7-B3 variant N325_07I/GpL16-k0 (antibody, human IgG1, kappa, heterodimerized IgG1, mutation in one H chain only; also called He Ab) heavy 1: not shown heavy 2: not shown light: DIVMTQSPLSLPVTPGEPASISCQASESLVHSNRNTYLHWYLQKPGQSPQLLIYKVSNRFSGVPDRFSGSGSGTDFTLKISRVEAEDVGVYYCSQNTHVPPTFGQGTKVEIERTVAAPSVFIFPPSDEQLKSGTASVVCLLNNFYPREAKVQWKVDNALQSGNSQESVTEQDSKDSTYSLSSTLTLSKADYEKHKVYACEVTHQGLSSPVTKSFNRGEC"
143 % of control He Ab (=100),33.4 % of control He Ab (=100),"GpH7-A5/GpH7-B3 variant N325_04F/GpL16-k0 (antibody, human IgG1, kappa, heterodimerized IgG1, mutation in one H chain only; also called He Ab) heavy 1: not shown heavy 2: not shown light: DIVMTQSPLSLPVTPGEPASISCQASESLVHSNRNTYLHWYLQKPGQSPQLLIYKVSNRFSGVPDRFSGSGSGTDFTLKISRVEAEDVGVYYCSQNTHVPPTFGQGTKVEIERTVAAPSVFIFPPSDEQLKSGTASVVCLLNNFYPREAKVQWKVDNALQSGNSQESVTEQDSKDSTYSLSSTLTLSKADYEKHKVYACEVTHQGLSSPVTKSFNRGEC"
193 % of control He Ab (=100),90 % of control He Ab (=100),"GpH7-A5/GpH7-B3 variant L328_15Y/GpL16-k0 (antibody, human IgG1, kappa, heterodimerized IgG1, mutation in one H chain only; also called He Ab) heavy 1: not shown heavy 2: not shown light: DIVMTQSPLSLPVTPGEPASISCQASESLVHSNRNTYLHWYLQKPGQSPQLLIYKVSNRFSGVPDRFSGSGSGTDFTLKISRVEAEDVGVYYCSQNTHVPPTFGQGTKVEIERTVAAPSVFIFPPSDEQLKSGTASVVCLLNNFYPREAKVQWKVDNALQSGNSQESVTEQDSKDSTYSLSSTLTLSKADYEKHKVYACEVTHQGLSSPVTKSFNRGEC"
101 % of control He Ab (=100),56.8 % of control He Ab (=100),"GpH7-A5/GpH7-B3 variant N325_01G/GpL16-k0 (antibody, human IgG1, kappa, heterodimerized IgG1, mutation in one H chain only; also called He Ab) heavy 1: not shown heavy 2: not shown light: DIVMTQSPLSLPVTPGEPASISCQASESLVHSNRNTYLHWYLQKPGQSPQLLIYKVSNRFSGVPDRFSGSGSGTDFTLKISRVEAEDVGVYYCSQNTHVPPTFGQGTKVEIERTVAAPSVFIFPPSDEQLKSGTASVVCLLNNFYPREAKVQWKVDNALQSGNSQESVTEQDSKDSTYSLSSTLTLSKADYEKHKVYACEVTHQGLSSPVTKSFNRGEC"
177 % of control He Ab (=100),79.7 % of control He Ab (=100),"GpH7-A5/GpH7-B3 variant N325_13S/GpL16-k0 (antibody, human IgG1, kappa, heterodimerized IgG1, mutation in one H chain only; also called He Ab) heavy 1: not shown heavy 2: not shown light: DIVMTQSPLSLPVTPGEPASISCQASESLVHSNRNTYLHWYLQKPGQSPQLLIYKVSNRFSGVPDRFSGSGSGTDFTLKISRVEAEDVGVYYCSQNTHVPPTFGQGTKVEIERTVAAPSVFIFPPSDEQLKSGTASVVCLLNNFYPREAKVQWKVDNALQSGNSQESVTEQDSKDSTYSLSSTLTLSKADYEKHKVYACEVTHQGLSSPVTKSFNRGEC"
